The source of these data is article PMC6003418.

Experiment [1] deals with SnLH3. As to the kind of experiment: SAXS.
Experiment [2] has as its target SnLH3. Put plainly: native gel or EMSA.

By stoichiometry N is commonly meant the number of molecules, sites or subunits per partner or assembly. For SnLH3 (natural protein), the stoichiometry N with SnLH3 [1] and in the experiment with SnLH3 [2] was 3 throughout.
